Test results taken from paper PMC8519427, “High affinity associations with α-SNAP enable calcium entry via Orai1 channels” (PLoS ONE, 2021).

Target: T1, human α-SNAP with an Avitag and a C-terminal 6xHis tag (human, UniProt P54920 1-295, biotin (in vitro biotinylated using BirA ligase; Avitag))
T1 construct: alpha-soluble NSF attachment protein (α-SNAP), human, amplified from HEK 293 cDNA; The methods describe a single preparation; The biotinylated protein was captured on streptavidin tips for BLI; also called biotinylated α-SNAP; Avi-Tagged human α-SNAP; source: E. coli LEMO21(DE3), pET28b, purified; in vitro biotinylated with BirA ligase; not shown: Avitag, C-terminal, kept
T1 sequence (looked up): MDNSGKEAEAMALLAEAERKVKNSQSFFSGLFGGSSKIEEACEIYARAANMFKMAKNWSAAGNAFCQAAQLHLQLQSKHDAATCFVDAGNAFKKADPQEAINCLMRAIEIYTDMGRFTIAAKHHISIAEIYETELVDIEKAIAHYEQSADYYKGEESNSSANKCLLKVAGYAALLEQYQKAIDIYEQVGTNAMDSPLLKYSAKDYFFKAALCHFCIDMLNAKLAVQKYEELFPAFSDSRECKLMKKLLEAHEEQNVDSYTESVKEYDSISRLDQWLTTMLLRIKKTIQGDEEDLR
Assay: pull-down; MBP- or GST-tagged Stim1 or Orai1 fragments immobilised on amylose or glutathione resin, incubated with 20–50 nM α-SNAP in Ringer's buffer with 0.1% NP-40 and 2 mM imidazole, 1 hr at 4°C; washed thrice; Western blot for α-SNAP
Conditions: both partners purified

binding result: binds
B1: MBP-Stim1 408–442 (CC3 domain) (domain or fragment, human, UniProt Q13586 408-442, looked up)
chain: KILTAKQALSEVTAALRERLHRWQQIEILCGFQIV
notes: Cloned into pMAL-c5X in frame with MBP; also called Stim1-CC3; source: E. coli LEMO21(DE3), purified by immobilizing on amylose resin
